Results reported in paper PMC2599749 (Protein expression and purification, 2008).

Experiments:
non-reducing SDS-PAGE = molecular target: the molecule itself; assay: non-reducing SDS-PAGE
[1] = molecular target: the molecule itself; assay: HPLC/ESI mass spectrometry

B1: bZIP domain of Activating Transcription Factor 5 (ATF5), untagged (domain or fragment, UniProt Q9Y2D1 208-271, looked up)
chain: GDRKQKKRDQNKSAALRYRQRKRAEGEALEGECQGLEARNRELKERAESVEREIQYVKDLLIEV
non-reducing SDS-PAGE
  monomer:dimer ratio (densitometry of the SDS-PAGE gel): 1.7 dimer per 1.0 monomer
[1]
  stoichiometry N: 2
